From article PMC10897393, “Cellular reprogramming in vivo initiated by SOX4 pioneer factor activity”

Legend:
[1] = target: T1, MYC-FLAG-HNF4A (Mus musculus, UniProt P49698 1-474); test: EMSA; EMSA: 10 mM Tris-HCl pH 7.5, 1 mM MgCl2, 1 mM DTT, 50 mM KCl, 0.3 mg/ml BSA, 5% glycerol, RT 30 min; 5% native PAGE in 0.5x TBE; settings: protein: commercial; tags: MYC-FLAG; chain copies: 2; label: Cy5 5'-end; blunt
T1 sequence: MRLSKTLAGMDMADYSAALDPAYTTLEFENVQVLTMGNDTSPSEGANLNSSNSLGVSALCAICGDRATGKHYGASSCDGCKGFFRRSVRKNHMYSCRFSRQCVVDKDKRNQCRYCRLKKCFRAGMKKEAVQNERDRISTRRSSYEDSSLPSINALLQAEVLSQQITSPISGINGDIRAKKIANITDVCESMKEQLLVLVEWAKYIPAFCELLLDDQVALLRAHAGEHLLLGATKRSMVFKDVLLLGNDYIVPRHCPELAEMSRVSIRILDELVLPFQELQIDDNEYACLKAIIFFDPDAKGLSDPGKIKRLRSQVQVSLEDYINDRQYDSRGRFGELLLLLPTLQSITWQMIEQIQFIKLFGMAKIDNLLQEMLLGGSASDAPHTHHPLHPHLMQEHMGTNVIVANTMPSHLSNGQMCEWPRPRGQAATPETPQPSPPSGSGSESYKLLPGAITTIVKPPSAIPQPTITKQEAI

[2] = target: T2, FLAG-SOX4 (Mus musculus, UniProt Q06831 1-440); test: competition; SOX4 displaces pre-bound HNF4A (30 nM); value is the effective SOX4 concentration; EMSA: 10 mM Tris-HCl pH 7.5, 1 mM MgCl2, 1 mM DTT, 50 mM KCl, 0.3 mg/ml BSA, 5% glycerol, RT 30 min; 5% native PAGE in 0.5x TBE; settings: protein: recombinant; label: Cy5 5'-end; blunt
[3] = target: T2, FLAG-SOX4; test: EMSA; more robust binding than HNF4A; EMSA: 10 mM Tris-HCl pH 7.5, 1 mM MgCl2, 1 mM DTT, 50 mM KCl, 0.3 mg/ml BSA, 5% glycerol, RT 30 min; 5% native PAGE in 0.5x TBE; settings: protein: recombinant; label: Cy5 5'-end; blunt

Measured: binding result

T2 sequence (Q06831 whole entry): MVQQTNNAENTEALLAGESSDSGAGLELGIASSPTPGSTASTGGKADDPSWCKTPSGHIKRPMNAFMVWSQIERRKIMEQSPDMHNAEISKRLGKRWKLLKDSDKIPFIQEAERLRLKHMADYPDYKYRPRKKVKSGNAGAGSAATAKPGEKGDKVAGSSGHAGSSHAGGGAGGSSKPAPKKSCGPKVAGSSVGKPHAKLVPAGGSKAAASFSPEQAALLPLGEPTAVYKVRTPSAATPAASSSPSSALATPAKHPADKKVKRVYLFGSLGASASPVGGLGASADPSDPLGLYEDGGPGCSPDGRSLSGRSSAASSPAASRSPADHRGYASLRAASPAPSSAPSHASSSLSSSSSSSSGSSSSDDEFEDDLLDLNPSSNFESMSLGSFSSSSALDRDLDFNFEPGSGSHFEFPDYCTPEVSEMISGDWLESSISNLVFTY

B1: Cyp2e1 distal enhancer WT (HNF4A motif) (dsDNA)
DNA 1: ATCTCTGGGACAAAGTATAGAGAAG
DNA 2: CTTCTCTATACTTTGTCCCAGAGAT
binds: all assays above
